Reference: IntAct's records for PubMed 23911326

B1: Metabotropic glutamate receptor 5 (Mus musculus), Q3UVX5 (parent)
chain: MVLLLILSVLLLKEDVRGSAQSSERRVVAHMPGDIIIGALFSVHHQPTVDKVHERKCGAVREQYGIQRVEAMLHTLERINSDPTLLPNITLGCEIRDSCWHSAVALEQSIEFIRDSLISSEEEEGLVRCVDGSSSFRSKKPIVGVIGPGSSSVAIQVQNLLQLFNIPQIAYSATSMDLSDKTLFKYFMRVVPSDAQQARAMVDIVKRYNWTYVSAVHTEGNYGESGMEAFKDMSAKEGICIAHSYKIYSNAGEQSFDKLLKKLRSHLPKARVVACFCEGMTVRGLLMAMRRLGLAGEFLLLGSDGWADRYDVTDGYQREAVGGITIKLQSPDVKWFDDYYLKLRPETNLRNPWFQEFWQHRFQCRLEGFAQENSKYNKTCNSSLTLRTHHVQDSKMGFVINAIYSMAYGLHNMQMSLCPGYAGLCDAMKPIDGRKLLDSLMKTNFTGVSGDMILFDENGDSPGRYEIMNFKEMGKDYFDYINVGSWDNGELKMDDDEVWSKKNNIIRSVCSEPCEKGQIKVIRKGEVSCCWTCTPCKENEYVFDEYTCKACQLGSWPTDDLTGCDLIPVQYLRWGDPEPIAAVVFACLGLLATLFVTVIFIIYRDTPVVKSSSRELCYIILAGICLGYLCTFCLIAKPKQIYCYLQRIGIGLSPAMSYSALVTKTNRIARILAGSKKKICTKKPRFMSACAQLVIAFILICIQLGIIVALFIMEPPDIMHDYPSIREVYLICNTTNLGVVTPLGYNGLLILSCTFYAFKTRNVPANFNEAKYIAFTMYTTCIIWLAFVPIYFGSNYKIITMCFSVSLSATVALGCMFVPKVYIILAKPERNVRSAFTTSTVVRMHVGDGKSSSAASRSSSLVNLWKRRGSSGETLRYKDRRLAQHKSEIECFTPKGSMGNGGRATMSSSNGKSVTWAQNEKSTRGQHLWQRLSVHINKKENPNQTAVIKPFPKSTESRGQGAGAGGGSGPGAAGAGSAGCTATGGPEPPDAGPKALYDVAEAEERFPAAARPRSPSPISTLSHLAGSAGRTDDDAPSLHSETAARSSSSQGSLMEQISSVVTRFTANITELNSMMLSTAAAPGPPGTPICSSYLIPKEIQLPTTMTTFAEIQPLPAIEVTGGAQPATGPSPAQETPAGAEAAPGKPDLEELVALTPPSPFRDSVDSGSTTPNSPVSESALCIPSSPKYDTLIIRDYTQSSSSL
partner: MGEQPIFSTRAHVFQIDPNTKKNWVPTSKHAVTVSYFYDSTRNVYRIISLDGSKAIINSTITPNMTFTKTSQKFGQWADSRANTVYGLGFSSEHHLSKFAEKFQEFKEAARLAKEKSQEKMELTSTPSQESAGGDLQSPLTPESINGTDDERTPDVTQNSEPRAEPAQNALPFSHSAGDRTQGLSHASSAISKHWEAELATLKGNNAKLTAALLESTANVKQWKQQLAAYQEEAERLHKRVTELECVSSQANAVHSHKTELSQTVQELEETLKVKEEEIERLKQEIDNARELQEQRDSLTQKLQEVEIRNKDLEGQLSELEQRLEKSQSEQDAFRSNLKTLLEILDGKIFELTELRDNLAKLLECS

Variants of: B1
Conditions: with Homer1, Q9Z214-1

Variant | effect of a mutation on the interaction
F1160R | disrupting interaction strength
